Measured values reported in patent publication US20050118651A1.

How the values were obtained:
[1] = molecular target: soluble [125I]Aβ1-42 (synthetic Aβ1-42 sonicated in DMSO, radio-iodinated) (human) (UniProt P05067); test: capture radioimmunoassay, 50,000 CPM of 125I-Aβ1-42 (or 125I-Aβ1-40), antibody at 10 µg/ml
[2] = molecular target: synthetic Aβ1-42 peptide (aggregated in the ELISAs) (human) (UniProt P05067); test: ELISA on aggregated synthetic Aβ1-42; given as ED50

Row | % of radioactive counts bound at 10 µg/ml [1] [%] | EC50 [2] [nM] | Substance
1 | 7 | 0.667 | antibody 12B4 (IgG2a)
2 | 2 | 0.053 | antibody 10D5 (IgG1)
